Molecular target: the molecule itself
Experiment: crystal structure; hanging drop vapor diffusion, room temperature, 16% PEG 8000, 100 mM HEPES, 200 mM calcium acetate, 200 μM 5-AU, pH 7.5; two monomers in the asymmetric unit

B1: Pseudomonas aeruginosa dihydropyrimidinase (enzyme)
chain: MSLLIRGATVVTHEESYRADVLCANGLIQAIGENLETPSGCDVLDGGGQYLMPGGIDPHTHMQLPFMGTVASEDFFSGTAAGLAGGTTSIIDFVIPNPRQSLLEAFHTWRGWAQKSAADYGFHVAITWWSDEVAREMGELVAQHGVNSFKHFMAYKNAIMAADDTLVASFERCLELGAVPTVHAENGELVFHLQQKLLAQGLTGPEAHPLSRPPQVEGEAASRAIRIAETLGTPLYLVHISSREALDEIAYARAKGQPVYGEVLAGHLLLDDSVYRHPDWATAAGYVMSPPFRPVEHQEALWRGLQSGNLHTTATDHCCFCAEQKAMGRDDFSKIPNGTAGIEDRMALLWDAGVNSGRLSMHEFVALTSTNTAKIFNLFPRKGAIRVGADADLVLWDPQGSRTLSAATHHQRVDFNIFEGRTVRGIPSHTISQGKLLWAAGDLRAEPGAGRYVERPAYPSVYEVLGRRAERQRPVAVER
modifications: carbamylated Lys150 (Kcx150)
notes: dihydropyrimidinase of Pseudomonas aeruginosa (PaDHPase), wild type; Binuclear Zn centre (Znα, Znβ) in each monomer; also called PaDHPase; DHPase
B1: binds.
